Assay results reported in patent US20140227179A1.

Experiments:
[1] = biological target: MUC5ac mucin (PAM4 antigen) from CaPan1 human pancreatic carcinoma (human) (UniProt P98088); assay: inhibition EIA on CPM1-coated plates; competitor hPAM4 at […]
[2] = biological target: MUC5ac mucin (PAM4 antigen) from CaPan1 human pancreatic carcinoma (human) (UniProt P98088); assay: sandwich EIA, hPAM4 capture of antigen from CPM1, MAb probe at 10 µg/mL (FIG. 26)
[3] = biological target: MUC5ac mucin (PAM4 antigen) from CaPan1 human pancreatic carcinoma (human) (UniProt P98088); assay: ELISA on target mucin antigen (FIG. 9)
[4] = biological target: MUC5ac mucin (PAM4 antigen) from CaPan1 human pancreatic carcinoma (human) (UniProt P98088); assay: radiolabeled TF10 with MUC5ac, size exclusion chromatography (not shown)
[5] = biological target: MUC5ac mucin (PAM4 antigen) from CaPan1 human pancreatic carcinoma (human) (UniProt P98088); assay: size exclusion chromatography of TF10/111In-IMP-288 with excess mucin
[6] = biological target: IMP-288 DOTA-di-HSG hapten-peptide; assay: 111In-IMP-288 with TF10, size exclusion chromatography (not shown)

| ICmax (maximal % inhibition) [1] | Kd [2] | EC50 [3] | immunoreactive fraction bound [4] | percent of TF10-bound 111In-IMP-288 shifted by mucin [5] | percent of peptide bound [6] | Substance |
| --- | --- | --- | --- | --- | --- | --- |
| 25.5% | 14.3 µg/mL | – | – | – | – | 45M1 anti-MUC5ac MAb (antibody) |
| – | – | 1.42 nM | 87% | 92% | 90% | TF10 bispecific ([hPAM4]2 x h679) DNL construct (bispecific antibody) |
